Consider four molecules from patent US20210277098A1 (MITSUBISHI TANABE PHARMA, published 2021).

For experiment [1], the target named is T1, mouse RGMa protein (R&D systems, 2458-RG) (mouse) (UniProt Q6PCX7).
T1 sequence: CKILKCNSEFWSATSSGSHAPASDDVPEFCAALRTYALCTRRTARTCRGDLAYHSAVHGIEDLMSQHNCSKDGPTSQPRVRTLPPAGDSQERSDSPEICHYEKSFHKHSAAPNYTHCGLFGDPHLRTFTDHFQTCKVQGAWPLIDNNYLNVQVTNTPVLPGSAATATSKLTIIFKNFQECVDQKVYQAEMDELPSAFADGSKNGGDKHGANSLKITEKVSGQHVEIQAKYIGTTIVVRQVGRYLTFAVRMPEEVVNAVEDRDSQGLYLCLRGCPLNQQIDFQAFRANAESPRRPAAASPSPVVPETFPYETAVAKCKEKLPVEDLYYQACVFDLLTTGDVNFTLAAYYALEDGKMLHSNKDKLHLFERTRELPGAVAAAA
The experiment can be described thus: SPR (Proteon XPR36), antigen amine-coupled on a GLC chip, antibody as analyte.

Experiment [2] concerns the target Human RGMa protein (R&D systems, 2459-RM) (human) (UniProt Q96B86). Described as above.
Experiment [3] has as its target T2, Human RGMa protein (R&D systems, 2459-RM) (human, UniProt Q96B86 48-422, limits assumed).
T2 construct: Bought protein; also called Recombinant RGMa protein
T2 sequence: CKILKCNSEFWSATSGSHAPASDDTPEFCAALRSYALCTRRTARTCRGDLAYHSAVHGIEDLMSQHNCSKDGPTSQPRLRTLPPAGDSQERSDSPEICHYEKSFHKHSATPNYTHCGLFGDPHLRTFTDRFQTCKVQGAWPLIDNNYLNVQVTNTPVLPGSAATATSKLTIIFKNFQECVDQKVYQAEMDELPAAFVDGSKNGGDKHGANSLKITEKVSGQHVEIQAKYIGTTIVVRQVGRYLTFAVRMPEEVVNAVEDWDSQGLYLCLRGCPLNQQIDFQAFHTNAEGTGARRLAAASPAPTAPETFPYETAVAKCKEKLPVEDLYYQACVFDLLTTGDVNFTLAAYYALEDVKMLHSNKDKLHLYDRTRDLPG
The experiment is described as above. The protocol:
(§1) The affinity of the test antibodies (r116A3 and r70E4) and r5F9 (Comparative Example) for RGMa protein were measured by the surface plasmon resonance (SPR) method using Proteon XPR36 (Bio-Rad).
(§2) Human RGMa protein (R&D Systems, 2459-RM), the C-terminal domain of human RGMa protein (prepared in Example 1) or mouse RGMa protein (R&D Systems, 2458-RG) diluted to 10 μg/mL with 10 mM acetate buffer (pH4.5) was immobilized on a GLC sensor chip by amine coupling method.

Experiment [4] concerns the target T3, C-terminal domain of human RGMa protein (prepared in Example 1), Pro 169 to Gly 422 with C-terminal histidine … (human, UniProt Q96B86 169-422).
T3 construct: Secreted from CHO cells and purified on a nickel column; also called Human RGMa C-terminal domain; recombinant human RGMa protein; not shown: histidine tag at the C terminus
T3 sequence: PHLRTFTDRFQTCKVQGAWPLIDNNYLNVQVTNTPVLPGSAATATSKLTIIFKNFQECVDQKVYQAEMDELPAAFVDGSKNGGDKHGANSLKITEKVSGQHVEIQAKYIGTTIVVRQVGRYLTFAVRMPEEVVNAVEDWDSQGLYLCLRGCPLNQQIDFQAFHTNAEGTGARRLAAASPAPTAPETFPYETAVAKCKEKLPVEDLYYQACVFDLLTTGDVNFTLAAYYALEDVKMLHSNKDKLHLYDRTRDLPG
Described as above. The protocol:
as §1, §2

Experiment [5] has as its target T1, mouse RGMa protein (R&D systems, 2458-RG) (mouse). The experiment can be described thus: SPR (Proteon XPR36), ratio of Kd values against r5F9.
Experiment [6] concerns the target T4, biotinylated SGSG-spacer peptide of human RGMa Glu 298 to Asp 308 (human).
T4 construct: One of 83 peptides of 11 residues, immobilised on avidin-coated plates
T4 peptide: Biotin-SGSGEEVVNAVEDWD
The experiment can be described thus: peptide scanning ELISA, biotinylated peptides on avidin-coated plates. The protocol:
(§3) Epitopes to which the antibodies bind were determined by the peptide scanning method. A total of 83 kinds of peptides were synthesized by fusing the N-terminal side of the amino acid sequences consisting of 11 consecutive residues shifted by 3 residues contained in Arg 172 to Ala 424 of the human RGMa protein (SEQ ID NO: 1 in Sequence Listing) with a spacer sequence (SGSG) with biotinylated N terminus (SEQ ID NO: 46 in Sequence Listing). After immobilizing the peptides on avidin-coated plates, the test antibodies (B5.116A3 and B5.70E4) were allowed to react. Subsequently, a peroxidase-labeled rabbit anti-mouse Ig antibody (Dako, P026002) was allowed to react. After a substrate solution was added and color developed for a certain time, the absorbance was measured with a plate reader.
On the technique in general: In an ELISA, binding on a coated surface is turned into a signal by an enzyme label.

The target of experiment [7] is T5, biotinylated SGSG-spacer peptide of human RGMa Asn 322 to Thr 332 (human).
T5 construct: One of 83 peptides of 11 residues, immobilised on avidin-coated plates
T5 peptide: Biotin-SGSGNQQIDFQAFHT
The description is as above. The method, then:
as §3

For experiment [8], the target named is T6, biotinylated SGSG-spacer peptide of human RGMa Val 301 to Gly 311 (human).
T6 construct: One of 83 peptides of 11 residues, immobilised on avidin-coated plates
T6 peptide: Biotin-SGSGVNAVEDWDSQG
The experiment is described as above. The protocol: as §3

Experiment [9] concerns the target T7, biotinylated SGSG-spacer peptide of human RGMa Lys 367 to Ala 377 (human).
T7 construct: One of 83 peptides of 11 residues, immobilised on avidin-coated plates
T7 peptide: Biotin-SGSGKLPVEDLYYQA
The experiment is described as above. The method, then:
as §3

The target of experiment [10] is T8, biotinylated SGSG-spacer peptide of human RGMa Ile 325 to Glu 335 (human).
T8 construct: One of 83 peptides of 11 residues, immobilised on avidin-coated plates
T8 peptide: Biotin-SGSGIDFQAFHTNAE
The description is as above. The protocol: as §3

No end group written: not given here. *: point of attachment. Biotin = O=C1N[C@H]2[C@H](CS[C@H]2CCCCC(=O)*)N1

Turning to “recombinant rat mouse chimeric antibody r5F9 (Comparative Example)”, the Kd in experiment [1] is 8.98 nM; in [2], 1.59 nM.

B1: recombinant mouse antibody r70E4 (antibody, mouse IgG2b, kappa, V domains shown)
VH: DVKLQESGPGLVKPSQSLSLTCSVTGYSITTSYYWNWIRQFPGNKLEWMGYISYDGTNNYNPSLKNRISITRDTSKNQFFLRLNSVTTEDTATYYCAGSFGYSQGTLVTVSA
VL: DVVMTQTPLSLPVSLGDQASISCRSSQSLVHSNGNTYLHWYLQRPGQSPKLLIYKVSNRFSGVPDRFSGSGSGTDFTLKISRVEAEDLGLYFCSQSTHVPYTFGGGTKLEIKR
notes: Recombinant form of B5.70E4 expressed in HEK293F cells
Consider B1, for which the Kd amounted to 174 nM in experiment [1], 2.43 nM in experiment [3] and 1.12 nM in experiment [4].

B2: recombinant mouse antibody r116A3 (antibody, mouse IgG2b, kappa, V domains shown)
VH: EVKLEESGGGLVQPGGSMKLSCAASGFTFSDAWMDWVRQSPEKGLEWVAEIRSKANNHATYYAESVKGRFTISRDDSKRSVYLQMNNLRAEDTGIYYCTRRDGAYWGQGTLVTVSA
VL: DIQMTQTTSSLSASLGDRVTISCRASQDISSYLNWYQQKPDGTVKLLIYYTSRLHSGVPSRFSGSGSGTDYSLTISNLEQEDIATYFCQQLNTLPWTFGGGTKLEIKR
notes: Recombinant form of B5.116A3 expressed in HEK293F cells
For the molecule B2, the results for the Kd in experiment [1], in [3] and in experiment [4] were 0.201 nM, 0.0487 nM and 0.0568 nM, respectively. Moreover, the times stronger binding than r5F9 in experiment [5] came to 44 times.

B3: mouse anti-human RGMa monoclonal antibody B5.116A3 (antibody, mouse IgG2b, kappa, V domains shown)
VH: B2 VH
VL: B2 VL
Take B3: the binding result in experiment [6], in [7], in experiment [8], in experiment [9] and in [10] was “binds” in each case.

For orientation: Kd means the equilibrium constant for the complex coming apart.
